According to the RNAGym collection of RNA variant scans (doi:10.7554/elife.90254):

B1: LINE1-full (parent)
chain: UACGUAGGUGGUUUUCCCCUGAUAGUGCUAAGGGGGCCUGGAAGUUUGGACUGGGCAGAGCUCAACACAGCGUGGCAAAGUGGCUGUGGCUAGACUGCCUCUCUGGAUUCCUCGUCACUCAGCAGGGCAUCUCUGAGAGAAAUGCC

Variants of: B1
Experiment: self-cleavage, relative activity (ratio to wild type); higher = more cleavage; in vitro, sequencing; the parent is a self-cleaving ribozyme

| Variant | self-cleavage |
| --- | --- |
| UACGUAGGUAGUUUUCCCCUGAUAGUGCUAAGGGGGCCUGGAAGUUUGGACUGGGCAGAGCUCAACACAGCGUGGCAAAGUGGCUGUGGCUAGACUGCCCCUCUGGAUUCCUCGUCACUCAGCAGGGCAUCUCUGAGAGAAAUGCC [G10A U100C] | 0.49 |
| UACGUAGGUAGUUUUCCCCUGAUAGUGCUAAGGGGGCCUGGAAGUUUGGACUGGGCAGAGCUCAACACAGCGUGGCAAAGUGGCUGUGGCUAGACUGCCUCUCUGGAUUCCUCGUCACUCAGCAGGGCAUCUCCGAGAGAAAUGCC [G10A U134C] | 1.5 |
| UACGUAGGUUGUUUUCCCCUGAUAGUGCUAAGGGGGCCUGGAAGUUUGGACUGGGCAGAGCUCAACACAGCGUGGCAAAGUGGCUGUGGCUAGACUACCUCUCUGGAUUCCUCGUCACUCAGCAGGGCAUCUCUGAGAGAAAUGCC [G10U G97A] | 0.11 |
| UACGUAGGUAGUUUUCCCCUGAUAGUGCUAAGGGGGCCUGGAAGUUUUGACUGGGCAGAGCUCAACACAGCGUGGCAAAGUGGCUGUGGCUAGACUGCCUCUCUGGAUUCCUCGUCACUCAGCAGGGCAUCUCUGAGAGAAAUGCC [G10A G48U] | 0.89 |
| UACGUAGGUAGUUUUCCCCUGAUAGUGCCAAGGGGGCCUGGAAGUUUGGACUGGGCAGAGCUCAACACAGCGUGGCAAAGUGGCUGUGGCUAGACUGCCUCUCUGGAUUCCUCGUCACUCAGCAGGGCAUCUCUGAGAGAAAUGCC [G10A U29C] | 1.12 |
| UACGUAGGUAGUUUUCCCCUGAUAGUGCUAAGGGGGCCUGGAAGUUUGGACUGGGCAGAGCUCAACACAGCGUGGCAAAGUGGCUGUGGCUAGACUGCCUCUCUGGAUUCCUCGCCACUCAGCAGGGCAUCUCUGAGAGAAAUGCC [G10A U115C] | 1.51 |
| UACGUAGGUAGUUUUCCCCUGAUAGUGCUAAGGGGGCCUGGAAGUUUGGACUGGGCAGAGCUCAACACAGCGUGGCAAAGUGGCUGUGGCUAGACUGCCUCUCUGGAUUCCUCGACACUCAGCAGGGCAUCUCUGAGAGAAAUGCC [G10A U115A] | 0.86 |
| UACGUAGGUUGUUUUCCCCUGAUAGUGCUAAGGGGGCCUGGAAGUUUGGACUGGGCAGAGCUCAACACAGCGUGGCAGAGUGGCUGUGGCUAGACUGCCUCUCUGGAUUCCUCGUCACUCAGCAGGGCAUCUCUGAGAGAAAUGCC [G10U A78G] | 1.09 |
| UACGUAGGUUGUUUUCCCCUGAUAGUGCUAAGGGGGCCUGGAAGUUUGGACUGGGCAGAGCUCAACACAGCGUGGCAAAGUGGCUGUGGCUAGACUGCCUCUCUGGAUUCCCCGUCACUCAGCAGGGCAUCUCUGAGAGAAAUGCC [G10U U112C] | 0.93 |
| UACGUAGGUAGUUUUCCCCUGAUAGUGCUAAGGGGGCCUGGAAGUUUGGACUGGGCAGAGCUCAACACAGCGUGGCAAAGUGGCUGUGGCUAGACUGCCUCUCAGGAUUCCUCGUCACUCAGCAGGGCAUCUCUGAGAGAAAUGCC [G10A U104A] | 0.91 |
| UACGUAGGUAGUUUUCCCCUGAUAGUGCUAAGGGGGCCUGGAAGUUUGGACUGGGCAGAGCUCAACACAGCGUGGCAAAGUGGCUGUGGCUAGACUGCCUCUCUGGAUUCCUCGUCACUCAGCAGGGCAUCUCUGAGAGAAACGCC [G10A U143C] | 1.4 |
| UACGUAGGUAGUUUUCCCCUGAUAGUGCUAAGGGGGCCUGGAAGUUUGGACUGGGCAGAGCUCAACACAGCGUGGCAAAGUGGCUGUGGCUAGACUGCCUCUCUGGAUUCCUCGUCACUCAGCAGGGCAUUUCUGAGAGAAAUGCC [G10A C131U] | 1.19 |
| UACGUAGGUAGUUUUCCCCUGAUAGUGCUAAGGGGGCCUGGAAGUUUGGACUGGGCAGAGCUCAACACAGCGUGGCAAAGUGGCUGUGGCUAGACUGCCUCUCUGGAUUCCCCGUCACUCAGCAGGGCAUCUCUGAGAGAAAUGCC [G10A U112C] | 1.66 |
| UACGUAGGUUGUUUUCCCCUGAUAGUGCUAAGGGGGCCUGGGAGUUUGGACUGGGCAGAGCUCAACACAGCGUGGCAAAGUGGCUGUGGCUAGACUGCCUCUCUGGAUUCCUCGUCACUCAGCAGGGCAUCUCUGAGAGAAAUGCC [G10U A42G] | 0 |
| UACGUAGGUAGUUUUCCCCUGAUAGUGCUAAGGGGGCCUGGAAGUUUGGACUGGGCAGAGCUCAACACAGCGUGGCAAAGUGGCUGUGGCUAGACUGCCUCUCUGGAUUCCUCGUCACCCAGCAGGGCAUCUCUGAGAGAAAUGCC [G10A U119C] | 1 |
| UACGUAGGUAGUUUUCCCCUGAUAGUGCUAAGGGGGCCUGGAAGUUUGGACUGGGCAGAGCUCAACACAGCGUGGCAAAGUGGCUGUGGCUAGACUGCCUCUCUGGAUUCCUCGUCACACAGCAGGGCAUCUCUGAGAGAAAUGCC [G10A U119A] | 0.93 |
| UACGUAGGUAGUUUUCCCCUGAUAGUGCUAAGGGGCCCUGGAAGUUUGGACUGGGCAGAGCUCAACACAGCGUGGCAAAGUGGCUGUGGCUAGACUGCCUCUCUGGAUUCCUCGUCACUCAGCAGGGCAUCUCUGAGAGAAAUGCC [G10A G36C] | 1.89 |
| UACGUAGGUAGUUUUCCCCUGAUAGUGCUAAGGGAGCCUGGAAGUUUGGACUGGGCAGAGCUCAACACAGCGUGGCAAAGUGGCUGUGGCUAGACUGCCUCUCUGGAUUCCUCGUCACUCAGCAGGGCAUCUCUGAGAGAAAUGCC [G10A G35A] | 0.92 |
| UACGUAGGUAGUUUUCCCCUGAUAGUGCUAAGGGGGCCUGGAAGUUUGGACUGGGCAGAGCUCAACACAGCGAGGCAAAGUGGCUGUGGCUAGACUGCCUCUCUGGAUUCCUCGUCACUCAGCAGGGCAUCUCUGAGAGAAAUGCC [G10A U73A] | 1.55 |
| UACGUAGGUAAUUUUCCCCUGAUAGUGCUAAGGGGGCCUGGAAGUUUGGACUGGGCAGAGCUCAACACAGCGUGGCAAAGUGGCUGUGGCUAGACUGCCUCUCUGGAUUCCUCGUCACUCAGCAGGGCAUCUCUGAGAGAAAUGCC [G10A G11A] | 1.61 |

| Variant | self-cleavage |
| --- | --- |
| UACGUAGGUGAUUUUCCCCUGAUUGUGCUAAGGGGGCCUGGAAGUUUGGACUGGGCAGAGCUCAACACAGCGUGGCAAAGUGGCUGUGGCUAGACUGCCUCUCUGGAUUCCUCGUCACUCAGCAGGGCAUCUCUGAGAGAAAUGCC [G11A A24U] | 1.72 |
| UACGUAGGUAGUUUUCCCCUGAUAGUGCUAAGGGGGCCUGGAAGUUUGGACUGGGCAGAGCUCAACACAGCGUGGCAAAGUGGCUGUGGCUAGACCGCCUCUCUGGAUUCCUCGUCACUCAGCAGGGCAUCUCUGAGAGAAAUGCC [G10A U96C] | 0.16 |
| UACGUAGGUGAUUUUCCCCUGAUAGUGCUAAGGGGGCCUGGAAGUUUGGACUGGGCAGAGCUCAACACAGCGUGGCAAAGUGGCUGUGGCUAGACUGCCUCUCUGGAUUCCUCGUCACUCAGCAGGGCAUCUCUGAGAGAAAUGCC [G11A] | 1.31 |
| UACGUAGGUAGUUUUCCCCUGAUAGUGCUAAGGGGGCCUGGAAGUUUGGACUGGGCAGAGCUCAACACAGCGUGGCAAAGUGGCUGUGGCUAGACUGCCUCUCUGGAUUCCUCGUCACUCAGCAGGGCACCUCUGAGAGAAAUGCC [G10A U130C] | 2.22 |
| UACGUAGGUUGUUUUCCCCUGAUAGUGCUAAGGGGGCCUGGAAGUUUGGACUGGGCAGAGCCCAACACAGCGUGGCAAAGUGGCUGUGGCUAGACUGCCUCUCUGGAUUCCUCGUCACUCAGCAGGGCAUCUCUGAGAGAAAUGCC [G10U U62C] | 0.06 |
| UACGUAGGUCGUUUUCCCCUGAUAGUGCUAAGGGGGCCUGGAAGUUUGGACUGGACAGAGCUCAACACAGCGUGGCAAAGUGGCUGUGGCUAGACUGCCUCUCUGGAUUCCUCGUCACUCAGCAGGGCAUCUCUGAGAGAAAUGCC [G10C G55A] | 0.6 |
| UACGUAGGUCGUUUUCCCCUGAUAGUGCUAAGGGGGCCUGGAAGUUUGGACUGGGCAGAGCUCAACACAGCGUGGCAAAGUGGCUGUGGCUAGACAGCCUCUCUGGAUUCCUCGUCACUCAGCAGGGCAUCUCUGAGAGAAAUGCC [G10C U96A] | 0.22 |
| UACGUAGGUAGUUUUCCCCCGAUAGUGCUAAGGGGGCCUGGAAGUUUGGACUGGGCAGAGCUCAACACAGCGUGGCAAAGUGGCUGUGGCUAGACUGCCUCUCUGGAUUCCUCGUCACUCAGCAGGGCAUCUCUGAGAGAAAUGCC [G10A U20C] | 1.6 |
| UACGUAGGUAGUUUUCCCCUAAUAGUGCUAAGGGGGCCUGGAAGUUUGGACUGGGCAGAGCUCAACACAGCGUGGCAAAGUGGCUGUGGCUAGACUGCCUCUCUGGAUUCCUCGUCACUCAGCAGGGCAUCUCUGAGAGAAAUGCC [G10A G21A] | 1.14 |
| UACGUAGGUAGUUUUCCCCUGAUAGUGCUAAGGGGGCCUGGAAGUUUGGACUGGGCAGAGCUCAACACAGCGUGGCAAAGUGGCUGUGGCUAGACUGCCUCUCUGGAUCCCUCGUCACUCAGCAGGGCAUCUCUGAGAGAAAUGCC [G10A U109C] | 1.08 |
| UACGUAGGUUGUUUUCCCCUGAUAGUGCUAAGGGGGCCUGGAAGUUUGGACUGGGCAGAGUUCAACACAGCGUGGCAAAGUGGCUGUGGCUAGACUGCCUCUCUGGAUUCCUCGUCACUCAGCAGGGCAUCUCUGAGAGAAAUGCC [G10U C61U] | 0.05 |
| UACGUAGGUUGUUUUCCCCUGAUAGUGCUAAGGGGGCCUGGAAGUUUGGUCUGGGCAGAGCUCAACACAGCGUGGCAAAGUGGCUGUGGCUAGACUGCCUCUCUGGAUUCCUCGUCACUCAGCAGGGCAUCUCUGAGAGAAAUGCC [G10U A50U] | 1.99 |
| UACGUAGGUAGUUUUCCCCUGAUAGUGCUAAGGGGGCCUGGAAGUUUGGACAGGGCAGAGCUCAACACAGCGUGGCAAAGUGGCUGUGGCUAGACUGCCUCUCUGGAUUCCUCGUCACUCAGCAGGGCAUCUCUGAGAGAAAUGCC [G10A U52A] | 0.97 |
| UACGUAGGUAGGUUUCCCCUGAUAGUGCUAAGGGGGCCUGGAAGUUUGGACUGGGCAGAGCUCAACACAGCGUGGCAAAGUGGCUGUGGCUAGACUGCCUCUCUGGAUUCCUCGUCACUCAGCAGGGCAUCUCUGAGAGAAAUGCC [G10A U12G] | 0.83 |
| UACGUAGGUAGUUUUCCCCUGAUAGUGCUAAGGGGGCCUGGAAGUUUGGACUGGGCAGAGCUCAACACAGCGUGGCAAAGUGGCUGUGGCUAGACUGCCUCCCUGGAUUCCUCGUCACUCAGCAGGGCAUCUCUGAGAGAAAUGCC [G10A U102C] | 1.39 |
| UACGUAGGUUGUCUUCCCCUGAUAGUGCUAAGGGGGCCUGGAAGUUUGGACUGGGCAGAGCUCAACACAGCGUGGCAAAGUGGCUGUGGCUAGACUGCCUCUCUGGAUUCCUCGUCACUCAGCAGGGCAUCUCUGAGAGAAAUGCC [G10U U13C] | 0.83 |
| UACGUAGGUAGUUUCCCCCUGAUAGUGCUAAGGGGGCCUGGAAGUUUGGACUGGGCAGAGCUCAACACAGCGUGGCAAAGUGGCUGUGGCUAGACUGCCUCUCUGGAUUCCUCGUCACUCAGCAGGGCAUCUCUGAGAGAAAUGCC [G10A U15C] | 1.2 |
| UACGUAGGUUGUUUUCCCCUGAUAGUGCUAAGGGGGCCUGGAAGUUUGGACUGGGCAGAGCUCAACACAGCGUGGCAAAGUGGCUGUGGCUAGACUGCCUCUCUGGAUUCCUCGUCACUCAGCAGGGCAUCUCUGAGUGAAAUGCC [G10U A138U] | 1 |
| UACGUAGGUAGUUUUCCCCUGAUAGUGCUAAGGGGGCCUGGAAGUUUGGACUGGGCAGAGCUCAACACAGCGUGGCAAAGUGGCUGUGGCUAGACUACCUCUCUGGAUUCCUCGUCACUCAGCAGGGCAUCUCUGAGAGAAAUGCC [G10A G97A] | 0.09 |
